Assay results reported in US10941182 (Amgen, dated 2021).
Starred links: 1 amine or outer side, 2 acyl side, 3 side chain; linkers in the order of their positions; H or OH if unused. Non-standard residues stand in square brackets, D forms with d. *: point of attachment. Oic = O=C(O)[C@@H]1C[C@@H]2CCCC[C@@H]2N1; Phe(4-Cl) = N[C@@H](Cc1ccc(Cl)cc1)C(=O)O; γGlu = O=C(O)[C@H](CCC(=O)[*:2])N[*:1]; NMeR = CN[C@@H](CCCNC(=N)N)C(=O)O; Tridecanoyl = CCCCCCCCCCCCC(=O)*; hArg = N=C(N)NCCCC[C@H](N)C(=O)O; Cha = N[C@@H](CC1CCCCC1)C(=O)O; Tle = CC(C)(C)[C@H](N)C(=O)O; Nle = CCCC[C@H](N)C(=O)O; Deg = CCC(N)(CC)C(=O)O; AEEA = NCCOCCOCC(=O)O

T1: rat APJ receptor (rat, UniProt Q9JHG3 1-377)
T1 sequence (looked up): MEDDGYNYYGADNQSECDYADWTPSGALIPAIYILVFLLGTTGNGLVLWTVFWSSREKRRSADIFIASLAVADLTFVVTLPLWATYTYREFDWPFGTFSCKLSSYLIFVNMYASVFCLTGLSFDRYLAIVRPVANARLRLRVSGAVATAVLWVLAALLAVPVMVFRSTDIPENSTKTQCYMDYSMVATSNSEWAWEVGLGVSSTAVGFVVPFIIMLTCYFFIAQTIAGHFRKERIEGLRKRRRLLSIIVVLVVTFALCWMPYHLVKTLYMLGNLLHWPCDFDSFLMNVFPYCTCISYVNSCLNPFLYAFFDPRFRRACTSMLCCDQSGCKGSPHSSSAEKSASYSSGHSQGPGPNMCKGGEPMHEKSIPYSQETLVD

T2: human APJ receptor (human, UniProt P35414 1-380)
T2 sequence (looked up): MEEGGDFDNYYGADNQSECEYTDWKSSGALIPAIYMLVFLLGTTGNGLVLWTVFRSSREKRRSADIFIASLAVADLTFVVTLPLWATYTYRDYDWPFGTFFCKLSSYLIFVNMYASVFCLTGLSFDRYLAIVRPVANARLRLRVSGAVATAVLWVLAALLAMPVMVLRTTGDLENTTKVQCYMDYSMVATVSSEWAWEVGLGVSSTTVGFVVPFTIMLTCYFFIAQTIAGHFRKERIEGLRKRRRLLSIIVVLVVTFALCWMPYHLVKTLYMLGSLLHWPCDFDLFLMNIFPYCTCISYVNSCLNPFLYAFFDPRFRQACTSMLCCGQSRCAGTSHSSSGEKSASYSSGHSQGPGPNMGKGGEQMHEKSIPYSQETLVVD


Tests used:
rat APJ receptor = target: T1, rat APJ receptor; assay: cell-based or functional assay
human APJ receptor = target: T2, human APJ receptor; assay: cell-based or functional assay

Binder	EC50 Rat APJ Receptor (GTPγS assay) (rat APJ receptor) [nM]	EC50 Human APJ Receptor (GTPγS assay) (human APJ receptor) [nM]
Tridecanoyl-[γGlu][AEEA][AEEA][dQ][hArg]P[dR][Cha]S[Deg]KG[Oic][Nle]P[Phe(4-Cl)]-OH (SMILES CCCCCCCCCCCCC(=O)N[C@@H](CCC(=O)NCCOCCOCC(=O)NCCOCCOCC(=O)N[C@H](CCC(N)=O)C(=O)N[C@@H](CCCCNC(=N)N)C(=O)N1CCC[C@H]1C(=O)N[C@H](CCCNC(=N)N)C(=O)N[C@@H](CC1CCCCC1)C(=O)N[C@@H](CO)C(=O)NC(CC)(CC)C(=O)N[C@@H](CCCCN)C(=O)NCC(=O)N1[C@H](C(=O)N[C@@H](CCCC)C(=O)N2CCC[C@H]2C(=O)N[C@@H](Cc2ccc(Cl)cc2)C(=O)O)C[C@@H]2CCCC[C@@H]21)C(=O)O) [Apelin polypeptide SEQ ID NO: 451]	31.6	11.2
Tridecanoyl-[γGlu][AEEA][AEEA]Q[hArg]P[NMeR]LSHKG[Oic][Nle]P[Phe(4-Cl)]-OH (SMILES CCCCCCCCCCCCC(=O)N[C@@H](CCC(=O)NCCOCCOCC(=O)NCCOCCOCC(=O)N[C@@H](CCC(N)=O)C(=O)N[C@@H](CCCCNC(=N)N)C(=O)N1CCC[C@H]1C(=O)N(C)[C@@H](CCCNC(=N)N)C(=O)N[C@@H](CC(C)C)C(=O)N[C@@H](CO)C(=O)N[C@@H](Cc1c[nH]cn1)C(=O)N[C@@H](CCCCN)C(=O)NCC(=O)N1[C@H](C(=O)N[C@@H](CCCC)C(=O)N2CCC[C@H]2C(=O)N[C@@H](Cc2ccc(Cl)cc2)C(=O)O)C[C@@H]2CCCC[C@@H]21)C(=O)O) [Apelin polypeptide SEQ ID NO: 354]	0.361	0.279
XXXQRPRLSHKGPXPF ({TDA}[AC4Abu][Aeea][Aeea]Q[hArg]P[NMeArg]LSHKGP[Nle]P[4-Cl-F]{COOH}) [Apelin polypeptide SEQ ID NO: 353]	0.275	0.095

The remaining lines, values ahead:

EC50 Rat APJ Receptor (GTPγS assay) (rat APJ receptor) [nM]	EC50 Human APJ Receptor (GTPγS assay) (human APJ receptor) [nM]	Binder
25	10.4	Tridecanoyl-[γGlu][AEEA][AEEA][dQ][hArg]P[dR][Cha]S[Tle]KG[Oic][Nle]P[Phe(4-Cl)]-OH (SMILES CCCCCCCCCCCCC(=O)N[C@@H](CCC(=O)NCCOCCOCC(=O)NCCOCCOCC(=O)N[C@H](CCC(N)=O)C(=O)N[C@@H](CCCCNC(=N)N)C(=O)N1CCC[C@H]1C(=O)N[C@H](CCCNC(=N)N)C(=O)N[C@@H](CC1CCCCC1)C(=O)N[C@@H](CO)C(=O)N[C@H](C(=O)N[C@@H](CCCCN)C(=O)NCC(=O)N1[C@H](C(=O)N[C@@H](CCCC)C(=O)N2CCC[C@H]2C(=O)N[C@@H](Cc2ccc(Cl)cc2)C(=O)O)C[C@@H]2CCCC[C@@H]21)C(C)(C)C)C(=O)O) [Apelin polypeptide SEQ ID NO: 452]
0.807	0.496	Tridecanoyl-[γGlu][AEEA][AEEA][dQ][hArg]P[NMeR][Cha]SHKG[Oic][Nle]P[Phe(4-Cl)]-OH (SMILES CCCCCCCCCCCCC(=O)N[C@@H](CCC(=O)NCCOCCOCC(=O)NCCOCCOCC(=O)N[C@H](CCC(N)=O)C(=O)N[C@@H](CCCCNC(=N)N)C(=O)N1CCC[C@H]1C(=O)N(C)[C@@H](CCCNC(=N)N)C(=O)N[C@@H](CC1CCCCC1)C(=O)N[C@@H](CO)C(=O)N[C@@H](Cc1c[nH]cn1)C(=O)N[C@@H](CCCCN)C(=O)NCC(=O)N1[C@H](C(=O)N[C@@H](CCCC)C(=O)N2CCC[C@H]2C(=O)N[C@@H](Cc2ccc(Cl)cc2)C(=O)O)C[C@@H]2CCCC[C@@H]21)C(=O)O) [Apelin polypeptide SEQ ID NO: 478]
